This is an account of results in publication PMC5291247, “The histone chaperone Vps75 forms multiple oligomeric assemblies capable of mediating exchange between histone H3–H4 tetramers and Asf1–H3–H4 complexes” (Nucleic Acids Research, 2016).

This series deals with the molecule itself. Briefly: crystal structure; Vps75 (1-225) crystallised from the VAH preparation; sitting drop, 0.1 M sodium cacodylate pH 6.5, 25% PEG 4000; four monomers in the asymmetric unit, two tetrameric assemblies in the lattice.

In general, stoichiometry N refers to a count of units in the complex or per binding partner.

B1: Vps75 (1–225) (domain or fragment, UniProt P53853 1-225, looked up)
chain: MMSDQENENEHAKAFLGLAKCEEEVDAIEREVELYRLNKMKPVYEKRDAYIDEIAEFWKIVLSQHVSFANYIRASDFKYIDTIDKIKVEWLALESEMYDTRDFSITFHFHGIEGDFKEQQVTKVFQIKKGKDDQEDGILTSEPVPIEWPQSYDSINPDLIKDKRSPEGKKKYRQGMKTIFGWFRWTGLKPGKEFPHGDSLASLFSEEIYPFCVKYYAEAQRDLED
notes: Vps75, yeast, residues 1-225 (C-terminally truncated), as crystallised; Crystallised from the Vps75-Asf1-H3-H4 preparation; only Vps75 is in the crystal; also called Vps75 tetramer; Vps75 (1-225) dimer
B1: the “stoichiometry N” value was determined as 4.
